T1: Human PTK7 Protein, His Tag, Acro Biosystems (human, UniProt Q13308 31-704)
T1 construct: Bought protein; also called CCK4; not shown: His tag
T1 sequence: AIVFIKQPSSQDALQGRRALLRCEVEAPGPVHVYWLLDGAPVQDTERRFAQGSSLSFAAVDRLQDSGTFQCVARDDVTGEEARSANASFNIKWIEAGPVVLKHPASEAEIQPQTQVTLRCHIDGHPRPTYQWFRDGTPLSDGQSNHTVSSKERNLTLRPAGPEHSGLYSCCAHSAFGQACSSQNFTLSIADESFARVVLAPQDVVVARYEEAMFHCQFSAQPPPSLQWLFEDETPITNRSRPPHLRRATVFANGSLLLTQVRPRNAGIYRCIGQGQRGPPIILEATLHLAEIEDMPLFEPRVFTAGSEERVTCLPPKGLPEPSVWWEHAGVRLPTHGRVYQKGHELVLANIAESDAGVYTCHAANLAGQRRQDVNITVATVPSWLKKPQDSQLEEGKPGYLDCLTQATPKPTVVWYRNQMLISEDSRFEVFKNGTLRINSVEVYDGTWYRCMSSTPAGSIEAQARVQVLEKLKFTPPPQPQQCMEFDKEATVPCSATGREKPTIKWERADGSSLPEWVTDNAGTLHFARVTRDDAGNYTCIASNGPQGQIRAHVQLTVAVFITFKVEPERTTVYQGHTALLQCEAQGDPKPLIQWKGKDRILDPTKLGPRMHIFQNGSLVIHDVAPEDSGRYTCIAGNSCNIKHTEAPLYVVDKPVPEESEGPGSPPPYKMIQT

B1: MYT11181 (antibody, V domains shown)
VH: EVQLVESGGGLVQPGGSLRLSCTASGHDLSSYVMGWVRQAPGKGLEWVGYIYGGGGTYYATWARGRFTISRDTSKNTVYLQMNSLRAEDTAVYFCARAAADFYFNLWGQGTLVTVSS
VL: EIVMTQSPSTLSASVGDRVIITCQASQSISSYLAWYQQKPGKAPKLLIYDISDLASGVPSRFSGSGSGAEFTLTISSLQPDDFATYYCQSYYWISNSGAAFGQGTKLTVL
notes: HC variant of MYT9460, sub at HCV pos 27 (H1 02)
B2: MYT11198 (antibody, V domains shown)
VH: EVQLVESGGGLVQPGGSLRLSCTASGIDLSSYVMGWVRQAPGKGLEWVGYIYGGGGTHYATWARGRFTISRDTSKNTVYLQMNSLRAEDTAVYFCARAAADFYFNLWGQGTLVTVSS
VL: EIVMTQSPSTLSASVGDRVIITCQASQSISSYLAWYQQKPGKAPKLLIYDISDLASGVPSRFSGSGSGAEFTLTISSLQPDDFATYYCQSYYWISNSGAAFGQGTKLTVL
notes: HC variant of MYT9460, sub at HCV pos 58 (H2 09)
B3: MYT11186 (antibody, V domains shown)
VH: EVQLVESGGGLVQPGGSLRLSCTASGIDLSSHVMGWVRQAPGKGLEWVGYIYGGGGTYYATWARGRFTISRDTSKNTVYLQMNSLRAEDTAVYFCARAAADFYFNLWGQGTLVTVSS
VL: EIVMTQSPSTLSASVGDRVIITCQASQSISSYLAWYQQKPGKAPKLLIYDISDLASGVPSRFSGSGSGAEFTLTISSLQPDDFATYYCQSYYWISNSGAAFGQGTKLTVL
notes: HC variant of MYT9460, sub at HCV pos 32 (H1 07)
B4: MYT11200 (antibody, V domains shown)
VH: EVQLVESGGGLVQPGGSLRLSCTASGIDLSSYVMGWVRQAPGKGLEWVGYIYGGGGTYYHTWARGRFTISRDTSKNTVYLQMNSLRAEDTAVYFCARAAADFYFNLWGQGTLVTVSS
VL: EIVMTQSPSTLSASVGDRVIITCQASQSISSYLAWYQQKPGKAPKLLIYDISDLASGVPSRFSGSGSGAEFTLTISSLQPDDFATYYCQSYYWISNSGAAFGQGTKLTVL
notes: HC variant of MYT9460, sub at HCV pos 60 (H2 11)
B5: MYT11199 (antibody, V domains shown)
VH: EVQLVESGGGLVQPGGSLRLSCTASGIDLSSYVMGWVRQAPGKGLEWVGYIYGGGGTYHATWARGRFTISRDTSKNTVYLQMNSLRAEDTAVYFCARAAADFYFNLWGQGTLVTVSS
VL: EIVMTQSPSTLSASVGDRVIITCQASQSISSYLAWYQQKPGKAPKLLIYDISDLASGVPSRFSGSGSGAEFTLTISSLQPDDFATYYCQSYYWISNSGAAFGQGTKLTVL
notes: HC variant of MYT9460, sub at HCV pos 59 (H2 10)
B6: MYT11185 (antibody, V domains shown)
VH: EVQLVESGGGLVQPGGSLRLSCTASGIDLSHYVMGWVRQAPGKGLEWVGYIYGGGGTYYATWARGRFTISRDTSKNTVYLQMNSLRAEDTAVYFCARAAADFYFNLWGQGTLVTVSS
VL: EIVMTQSPSTLSASVGDRVIITCQASQSISSYLAWYQQKPGKAPKLLIYDISDLASGVPSRFSGSGSGAEFTLTISSLQPDDFATYYCQSYYWISNSGAAFGQGTKLTVL
notes: HC variant of MYT9460, sub at HCV pos 31 (H1 06)
B7: MYT11205 (antibody, V domains shown)
VH: EVQLVESGGGLVQPGGSLRLSCTASGIDLSSYVMGWVRQAPGKGLEWVGYIYGGGGTYYATWARHRFTISRDTSKNTVYLQMNSLRAEDTAVYFCARAAADFYFNLWGQGTLVTVSS
VL: EIVMTQSPSTLSASVGDRVIITCQASQSISSYLAWYQQKPGKAPKLLIYDISDLASGVPSRFSGSGSGAEFTLTISSLQPDDFATYYCQSYYWISNSGAAFGQGTKLTVL
notes: HC variant of MYT9460, sub at HCV pos 65 (H2 16)
B8: MYT11203 (antibody, V domains shown)
VH: EVQLVESGGGLVQPGGSLRLSCTASGIDLSSYVMGWVRQAPGKGLEWVGYIYGGGGTYYATWHRGRFTISRDTSKNTVYLQMNSLRAEDTAVYFCARAAADFYFNLWGQGTLVTVSS
VL: EIVMTQSPSTLSASVGDRVIITCQASQSISSYLAWYQQKPGKAPKLLIYDISDLASGVPSRFSGSGSGAEFTLTISSLQPDDFATYYCQSYYWISNSGAAFGQGTKLTVL
notes: HC variant of MYT9460, sub at HCV pos 63 (H2 14)
B9: MYT11201 (antibody, V domains shown)
VH: EVQLVESGGGLVQPGGSLRLSCTASGIDLSSYVMGWVRQAPGKGLEWVGYIYGGGGTYYAHWARGRFTISRDTSKNTVYLQMNSLRAEDTAVYFCARAAADFYFNLWGQGTLVTVSS
VL: EIVMTQSPSTLSASVGDRVIITCQASQSISSYLAWYQQKPGKAPKLLIYDISDLASGVPSRFSGSGSGAEFTLTISSLQPDDFATYYCQSYYWISNSGAAFGQGTKLTVL
notes: HC variant of MYT9460, sub at HCV pos 61 (H2 12)
B10: MYT11206 (antibody, V domains shown)
VH: EVQLVESGGGLVQPGGSLRLSCTASGIDLSSYVMGWVRQAPGKGLEWVGYIYGGGGTYYATWARGRFTISRDTSKNTVYLQMNSLRAEDTAVYFCHRAAADFYFNLWGQGTLVTVSS
VL: EIVMTQSPSTLSASVGDRVIITCQASQSISSYLAWYQQKPGKAPKLLIYDISDLASGVPSRFSGSGSGAEFTLTISSLQPDDFATYYCQSYYWISNSGAAFGQGTKLTVL
notes: HC variant of MYT9460, sub at HCV pos 96 (H3 01)
B11: MYT11202 (antibody, V domains shown)
VH: EVQLVESGGGLVQPGGSLRLSCTASGIDLSSYVMGWVRQAPGKGLEWVGYIYGGGGTYYATHARGRFTISRDTSKNTVYLQMNSLRAEDTAVYFCARAAADFYFNLWGQGTLVTVSS
VL: EIVMTQSPSTLSASVGDRVIITCQASQSISSYLAWYQQKPGKAPKLLIYDISDLASGVPSRFSGSGSGAEFTLTISSLQPDDFATYYCQSYYWISNSGAAFGQGTKLTVL
notes: HC variant of MYT9460, sub at HCV pos 62 (H2 13)
B12: MYT11207 (antibody, V domains shown)
VH: EVQLVESGGGLVQPGGSLRLSCTASGIDLSSYVMGWVRQAPGKGLEWVGYIYGGGGTYYATWARGRFTISRDTSKNTVYLQMNSLRAEDTAVYFCAHAAADFYFNLWGQGTLVTVSS
VL: EIVMTQSPSTLSASVGDRVIITCQASQSISSYLAWYQQKPGKAPKLLIYDISDLASGVPSRFSGSGSGAEFTLTISSLQPDDFATYYCQSYYWISNSGAAFGQGTKLTVL
notes: HC variant of MYT9460, sub at HCV pos 97 (H3 02)
B13: MYT11183 (antibody, V domains shown)
VH: EVQLVESGGGLVQPGGSLRLSCTASGIDHSSYVMGWVRQAPGKGLEWVGYIYGGGGTYYATWARGRFTISRDTSKNTVYLQMNSLRAEDTAVYFCARAAADFYFNLWGQGTLVTVSS
VL: EIVMTQSPSTLSASVGDRVIITCQASQSISSYLAWYQQKPGKAPKLLIYDISDLASGVPSRFSGSGSGAEFTLTISSLQPDDFATYYCQSYYWISNSGAAFGQGTKLTVL
notes: HC variant of MYT9460, sub at HCV pos 29 (H1 04)
B14: MYT11188 (antibody, V domains shown)
VH: EVQLVESGGGLVQPGGSLRLSCTASGIDLSSYVHGWVRQAPGKGLEWVGYIYGGGGTYYATWARGRFTISRDTSKNTVYLQMNSLRAEDTAVYFCARAAADFYFNLWGQGTLVTVSS
VL: EIVMTQSPSTLSASVGDRVIITCQASQSISSYLAWYQQKPGKAPKLLIYDISDLASGVPSRFSGSGSGAEFTLTISSLQPDDFATYYCQSYYWISNSGAAFGQGTKLTVL
notes: HC variant of MYT9460, sub at HCV pos 34 (H1 09)
B15: MYT11187 (antibody, V domains shown)
VH: EVQLVESGGGLVQPGGSLRLSCTASGIDLSSYHMGWVRQAPGKGLEWVGYIYGGGGTYYATWARGRFTISRDTSKNTVYLQMNSLRAEDTAVYFCARAAADFYFNLWGQGTLVTVSS
VL: EIVMTQSPSTLSASVGDRVIITCQASQSISSYLAWYQQKPGKAPKLLIYDISDLASGVPSRFSGSGSGAEFTLTISSLQPDDFATYYCQSYYWISNSGAAFGQGTKLTVL
notes: HC variant of MYT9460, sub at HCV pos 33 (H1 08)

The binders below were run against T1, Human PTK7 Protein, His Tag, Acro … (assay: BLI (Octet), antibody on anti-human Fc sensor, 50 nM PTK7, dissociation at pH 7.4 or 5.4; 2 = substantially similar binding relative to parent).

Binding result, binds:
B1
B2
B3
B4
B5
B6
B7
B8
B9
B10
B11
B12
B13
B14
B15

— patent US20260209386A1 (MYTHIC THERAPEUTICS, published 2026)
